Consider one protein from publication PMC4486471 (Nature communications, 2014).

This series deals with the molecule itself. Put plainly: crystal structure.

B1: auto-phosphorylated minimal dual catalytic domain fragment of murine IRE1α encompassing residues 549 to 977 (domain or fragment, mouse, UniProt Q9EQY0 549-977, looked up)
chain: SPSLEQDDEDEETRMVIVGKISFCPKDVLGHGAEGTIVYKGMFDNRDVAVKRILPECFSFADREVQLLRESDEHPNVIRYFCTEKDRQFQYIAIELCAATLQEYVEQKDFAHLGLEPITLLHQTTSGLAHLHSLNIVHRDLKPHNILLSMPNAHGRIKAMISDFGLCKKLAVGRHSFSRRSGVPGTEGWIAPEMLSEDCKDNPTYTVDIFSAGCVFYYVISEGYHPFGKSLQRQANILLGACNLDCFHSDKHEDVIARELIEKMIAMDPQQRPSAKHVLKHPFFWSLEKQLQFFQDVSDRIEKEALDGPIVRQLERGGRAVVKMDWRENITVPLQTDLRKFRTYKGGSVRDLLRAMRNKKHHYRELPVEVQETLGSIPDDFVRYFTSRFPHLLSHTYQAMELCRHERLFQTYYWHEPTEPQPPVIPYAL
modifications: auto-phosphorylated (sites not given)
On to B1, for which the binding result is reported as “binds”.
